T1: Abp1 SH3 (ABP1_YEAST), P15891
T1 chain: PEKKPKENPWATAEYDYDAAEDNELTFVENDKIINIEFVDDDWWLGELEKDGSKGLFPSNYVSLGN

B1: YDL030W 480-493 (peptide)
chain: QSQLTSIAAVPPKP
B2: YGL099W 127-140 (peptide)
chain: QRALAKDLIVPRRP
B3: YGR084C 80-92 (peptide)
chain: RDPKTREPLQPRP
B4: YFL007W 1286-1298 (peptide)
chain: QLATSLYPDIYKP
B5: YGR112W 321-333 (peptide)
chain: QFIKAGVPIGRKP
B6: YHR073W 189-202 (peptide)
chain: QSMISTRSTPPARP
B7: YML007W 308-321 (peptide)
chain: QVSGTRQSPIPKKP
B8: YKL101W 857-870 (peptide)
chain: QLQKKNDRPSPLKP
B9: YNL278W 947-960 (peptide)
chain: QQVPMPILQQPNRP
B10: YHL004W 115-128 (peptide)
chain: QSSTTTAAATPTKP
B11: YDR128W 69-82 (peptide)
chain: QVADVQWSPHPAKP
B12: YDR310C 197-210 (peptide)
chain: QHNTSSSRRGPGRP
B13: YDR422C 627-640 (peptide)
chain: QVEPTLDEELPKRP
B14: YGR116W 858-871 (peptide)
chain: QNSERAAQEFPNKP
B15: YPR175W 148-161 (peptide)
chain: QPTERDEYKQPFKP
B16: YIL091C 357-369 (peptide)
chain: QFRDDSLPPKSKP
B17: YER169W 386-398 (peptide)
chain: QLPNPAMPLLHRP
B18: YPL085W 911-924 (peptide)
chain: QPPTGILPLAPLRP
B19: YHR196W 194-206 (peptide)
chain: QMVYIVDPSKRRP
B20: YOL040C 61-73 (peptide)
chain: RAAKLAAPENEKP
B21: YLR029C 32-45 (peptide)
chain: QKNVIHRAARPTRP
B22: YIL080W 1034-1046 (peptide)
chain: RAIYTITPETSRP
B23: YLL016W 403-416 (peptide)
chain: QNDLPTGYYEPMKP
B24: YLR375W 257-269 (peptide)
chain: QLDMDMYPYKLKP
B25: YLR287C-A 17-30 (peptide)
chain: QTPKVEKTEKPKKP
B26: YER172C 459-471 (peptide)
chain: QYDEIHIPAPSKP
B27: YMR302C 753-766 (peptide)
chain: RDRGVLQEIRPAKP
B28: YHR031C 197-209 (peptide)
chain: QGLKLTVPKKIKP
B29: YPR179C 274-286 (peptide)
chain: RDRLGTLPPDLRP
B30: YDR414C 52-64 (peptide)
chain: QVILTRVPHDIRP
B31: YOR264W 128-140 (peptide)
chain: QRKSLRRPTLSKP
B32: YGR109W-B 1008-1020 (peptide)
chain: RAVYTITPETSRP
B33: YPL125W 1020-1032 (peptide)
chain: QMFLSIQPQEARP
B34: YNR010W 13-25 (peptide)
chain: QILLPTNPTLDKP
B35: YHR030C 429-442 (peptide)
chain: QNLPRHDADFPPRP
B36: YMR160W 21-34 (peptide)
chain: QIREDQQEVPPQRP
B37: YNL298W 490-503 (peptide)
chain: QSTPQTMRQAPKRP
B38: YNL169C 143-155 (peptide)
chain: QVNSLTLPIWVRP
B39: YDR365C 307-319 (peptide)
chain: RDESSILPKNYRP
B40: YOR070C 275-287 (peptide)
chain: QISWNGIPKIHRP
B41: YBR073W 34-47 (peptide)
chain: QMQIPKYENKPFKP
B42: YPL032C 537-550 (peptide)
chain: QRFNNSNNSIPRKP
B43: YCL008C 172-184 (peptide)
chain: QQEQNTPPLPPKP
B44: YLR304C 105-117 (peptide)
chain: QFMSAGLPQVAKP
B45: YMR072W 33-46 (peptide)
chain: QLRNELIKQGPKRP
B46: YHR064C 433-445 (peptide)
chain: QPVIVNTPHLKKP
B47: YDR171W 23-36 (peptide)
chain: QRGQQGYPRQPQRP
B48: YDL036C 175-187 (peptide)
chain: QVHRHEPPVTSRP
B49: YCR032W 1846-1859 (peptide)
chain: QLTTEVWRKVPMKP
B50: YDR434W 319-332 (peptide)
chain: QWGVIIINKMPLKP
B51: YDR122W 674-686 (peptide)
chain: RAVSDFVPGFAKP
B52: YHL007C 201-213 (peptide)
chain: RATPVSTPVISKP
B53: YJL208C 31-43 (peptide)
chain: QIIETPYPPTQKP
B54: YOR178C 4-16 (peptide)
chain: QTATTLSPAKARP
B55: YBR108W 772-784 (peptide)
chain: QSTKKAPPPVVKP
B56: YLR138W 520-533 (peptide)
chain: QIGSVATSGIPARP
B57: YPL042C 7-19 (peptide)
chain: RAQNSYQPMYQRP
B58: YNL137C 407-420 (peptide)
chain: QKNYVYGRQDPKKP

Target: T1, Abp1 SH3 (ABP1_YEAST), P15891
Test: SPOT array

normalised SPOT signal, Boehringer light units (BLU); mean over the file's lines of this peptide	Binder
92.9	B1
42100	B2
297	B3
86.3	B4
7910	B5
3390	B6
172	B7
347	B8
113	B9
160	B10
89.6	B11
579	B12
58.1	B13
75.2	B14
19.8	B15
196	B16
160	B17
63.4	B18
445	B19
4.4	B20

normalised SPOT signal, Boehringer light units (BLU); mean over the file's lines of this peptide	Binder
253	B21
49.8	B22
15.1	B23
57.3	B24
33.2	B25
40.6	B26
51	B27
1000	B28
201	B29
116	B30
43	B31
114	B32
310	B33
135	B34
22	B35
74.4	B36
7180	B37
215	B38
97.6	B39
1750	B40

normalised SPOT signal, Boehringer light units (BLU); mean over the file's lines of this peptide	Binder
316	B41
627	B42
16.1	B43
140	B44
212	B45
83.3	B46
333	B47
133	B48
897	B49
62.9	B50
198	B51
61.6	B52
55	B53
122	B54
4860	B55
66.6	B56
696	B57
147	B58
